Measured values as given in the RNAGym collection of RNA variant scans (doi:10.7554/elife.80360).

B1: Hammerhead Ribozyme (parent)
chain: ACCGGAUGUGCUUUCCGGUCUGAUGAGUCCGUGAGGACGAAACAG

Variants of: B1
Experiment: self-cleavage, relative activity (ratio to wild type); higher = more cleavage; co-transcriptional

Variant	self-cleavage
G4A G10U	0.734
G4A G17A	0.337
G4A G17C	0.399
G4A G17U	0.39
G4A G18A	0.372
G4A G18C	0.333
G4A G18U	0.323
G4A G22A	0.281
G4A G22C	0.354
G4A G22U	0.302
G4A G25A	0.313
G4A G25C	0.32
G4A G25U	0.316
G4A G27A	0.332
G4A G27C	0.297
G4A G27U	0.366
G4A G31A	0.641
G4A G31C	0.594
G4A G31U	0.678
G4A G33A	0.55
G4A G33C	0.549
G4A G33U	0.597
G4A G35A	0.386
G4A G35C	0.391

Variant	self-cleavage
G4A G35U	0.382
G4A G36A	0.367
G4A G36C	0.343
G4A G36U	0.37
G4A G39A	0.353
G4A G39C	0.319
G4A G39U	0.26
G4A G45A	0.348
G4A G45C	0.393
G4A G45U	0.418
G4A U7A	0.538
G4A U7C	0.294
G4A U7G	0.335
G4A U9A	0.458
G4A U9C	0.47
G4A U9G	0.423
G4A U12A	0.589
G4A U12C	0.305
G4A U12G	0.541
G4A U13A	1.01
G4A U13C	0.824
G4A U13G	0.616
G4A U14A	0.49
G4A U14C	0.404

Variant	self-cleavage
G4A U14G	0.542
G4A U19A	0.353
G4A U19C	0.276
G4A U19G	0.238
G4A U21A	0.312
G4A U21C	0.373
G4A U21G	0.374
G4A U24A	0.682
G4A U24C	0.59
G4A U24G	0.546
G4A U28A	0.364
G4A U28C	0.306
G4A U28G	0.341
G4A U32A	0.579
G4A U32C	0.516
G4A U32G	0.436
G4C	0.784
G4C A6C	0.251
G4C A6G	0.358
G4C A6U	0.281
G4C A23C	0.299
G4C A23G	0.225
G4C A23U	0.314
G4C A26C	0.289

Variant	self-cleavage
G4C A26G	0.276
G4C A26U	0.427
G4C A34C	0.679
G4C A34G	0.596
G4C A34U	0.585
G4C A37C	0.328
G4C A37G	0.516
G4C A37U	0.294
G4C A40C	0.352
G4C A40G	0.243
G4C A40U	0.255
G4C A41C	0.316
G4C A41G	0.255
G4C A41U	0.267
G4C A42C	0.296
G4C A42G	0.359
G4C A42U	0.297
G4C A44C	0.422
G4C A44G	0.805
G4C A44U	0.34
G4C C11A	0.67
G4C C11G	0.767
G4C C11U	0.331
G4C C15A	0.524

Variant	self-cleavage
G4C C15G	0.929
G4C C15U	0.557
G4C C16A	1.65
G4C C16G	1.35
G4C C16U	1.39
G4C C20A	0.244
G4C C20G	0.266
G4C C20U	0.441
G4C C29A	0.317
G4C C29G	0.347
G4C C29U	0.567
G4C C30A	0.594
G4C C30G	0.371
G4C C30U	0.703
G4C C38A	0.478
G4C C38G	0.346
G4C C38U	0.643
G4C C43A	0.285
G4C C43G	0.315
G4C C43U	0.298
G4C G5A	0.365
G4C G5C	0.327
G4C G5U	0.418
G4C G8A	0.543

Variant	self-cleavage
G4C G8C	0.592
G4C G8U	0.353
G4C G10A	0.662
G4C G10C	0.436
G4C G10U	0.722
G4C G17A	0.298
G4C G17C	0.291
G4C G17U	0.291
G4C G18A	0.303
G4C G18C	0.251
G4C G18U	0.284
G4C G22A	0.297
G4C G22C	0.241
G4C G22U	0.238
G4C G25A	0.307
G4C G25C	0.289
G4C G25U	0.289
G4C G27A	0.476
G4C G27C	0.412
G4C G27U	0.326
G4C G31A	0.939
G4C G31C	0.768
G4C G31U	0.748
G4C G33A	0.879

Variant	self-cleavage
G4C G33C	0.742
G4C G33U	0.837
G4C G35A	0.297
G4C G35C	0.341
G4C G35U	0.426
G4C G36A	0.282
G4C G36C	0.247
G4C G36U	0.281
G4C G39A	0.326
G4C G39C	0.244
G4C G39U	0.293
G4C G45A	0.355
G4C G45C	0.4
G4C G45U	0.4
G4C U7A	1.03
G4C U7C	0.353
G4C U7G	0.768
G4C U9A	0.613
G4C U9C	0.704
G4C U9G	0.573
G4C U12A	0.766
G4C U12C	0.513
G4C U12G	0.599
